The target in assay [1] is T1, Terbium (Tb) labeled-SNAP tagged ROBO2 expressed on HEK293 cells (Homo sapiens (Human), UniProt Q9HCK4 22-1378, terbium label on the SNAP tag).
T1 construct: also called Tb-labeled ROBO2 cells; ROBO2 expressing cells; not shown: SNAP tag
T1 sequence: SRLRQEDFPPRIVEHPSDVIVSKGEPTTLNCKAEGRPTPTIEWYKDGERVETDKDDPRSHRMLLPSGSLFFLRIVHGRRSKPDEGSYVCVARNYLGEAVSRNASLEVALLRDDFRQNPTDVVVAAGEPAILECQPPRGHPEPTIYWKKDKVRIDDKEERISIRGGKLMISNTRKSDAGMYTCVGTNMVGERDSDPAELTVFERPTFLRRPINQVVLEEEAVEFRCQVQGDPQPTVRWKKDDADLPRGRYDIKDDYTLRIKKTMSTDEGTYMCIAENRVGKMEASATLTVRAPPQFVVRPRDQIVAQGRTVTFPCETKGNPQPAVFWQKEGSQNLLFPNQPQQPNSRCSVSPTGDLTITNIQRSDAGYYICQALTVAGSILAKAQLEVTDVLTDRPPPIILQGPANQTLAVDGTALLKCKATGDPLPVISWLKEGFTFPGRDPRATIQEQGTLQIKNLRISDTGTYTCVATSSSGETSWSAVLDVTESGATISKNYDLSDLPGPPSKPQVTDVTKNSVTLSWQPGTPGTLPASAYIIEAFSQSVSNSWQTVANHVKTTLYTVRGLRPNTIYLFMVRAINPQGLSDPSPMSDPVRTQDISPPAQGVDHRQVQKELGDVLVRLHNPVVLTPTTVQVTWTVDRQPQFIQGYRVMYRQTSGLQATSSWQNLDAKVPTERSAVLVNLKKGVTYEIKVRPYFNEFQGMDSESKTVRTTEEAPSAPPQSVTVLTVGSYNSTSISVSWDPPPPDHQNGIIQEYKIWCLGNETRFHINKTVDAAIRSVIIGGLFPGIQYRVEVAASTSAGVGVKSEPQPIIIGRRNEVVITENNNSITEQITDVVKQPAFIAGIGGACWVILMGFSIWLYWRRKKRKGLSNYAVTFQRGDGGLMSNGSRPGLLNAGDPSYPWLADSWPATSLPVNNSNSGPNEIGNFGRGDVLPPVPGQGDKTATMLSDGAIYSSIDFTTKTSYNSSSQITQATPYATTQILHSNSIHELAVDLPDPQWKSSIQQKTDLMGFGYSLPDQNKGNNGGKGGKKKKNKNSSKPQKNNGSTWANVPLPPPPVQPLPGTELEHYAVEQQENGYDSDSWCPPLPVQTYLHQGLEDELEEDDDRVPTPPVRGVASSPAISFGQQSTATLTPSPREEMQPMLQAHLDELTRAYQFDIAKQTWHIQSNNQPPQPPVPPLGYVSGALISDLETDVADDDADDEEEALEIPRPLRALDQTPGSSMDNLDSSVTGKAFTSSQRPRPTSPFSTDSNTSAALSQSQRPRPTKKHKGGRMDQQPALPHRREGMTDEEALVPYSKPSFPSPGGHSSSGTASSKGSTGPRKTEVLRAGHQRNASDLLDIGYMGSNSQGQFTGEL
Briefly: HTRF competition, competitor d2-SLIT2-N, ROBO2 HEK293 cells. The essentials:
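HEK293 cells expressing Tb-labeled SNAP-ROBO2 were incubated 1 hour with 5 nM d2-SLIT2-N plus antibody, read as the 665/620 nm HTRF ratio. Controls were no antibody (maximal) and cells alone (minimal). Screening used 1 nM antibody; IC₅₀ came from 11-point, 5-fold dilutions starting at 1500 nM.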
On the technique in general: TR-FRET usually uses a lanthanide donor and a delayed reading to cut background.

The target of assay [2] is T1, Terbium (Tb) labeled-SNAP tagged ROBO2 …. Briefly: HTRF, 5 nM d2-SLIT2-N on Tb-SNAP-ROBO2 HEK293 cells, 1 nM antibody. In short, it runs like this:
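Tb-SNAP-ROBO2 HEK293 cells incubated 1 hour with 5 nM d2-SLIT2-N, with 1 nM anti-ROBO2 antibody or none (maximal signal); cells alone gave minimum. HTRF read at 665/620 nm; IC50 series used 11-point, 5-fold dilutions from 1500 nM.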

The IC50 is the point on the concentration scale where inhibition reaches its midpoint. Read a low IC50 as greater potency.

B1: 93H2 (antibody, human IgG1, kappa, V domains shown)
VH: EVQLVQSGAEVKKPGASVKVSCKASGYTFTGYYMHWVRQAPGQGLEWMGWINPNSGATNFPQKFQGRVTMTRDTSITTAYMDLSRLRSDDTAVYYCARESGDDAFDIWGQGTMVTVSS
VL: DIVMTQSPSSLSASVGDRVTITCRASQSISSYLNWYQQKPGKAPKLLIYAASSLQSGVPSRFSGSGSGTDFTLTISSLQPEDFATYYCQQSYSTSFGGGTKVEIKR
notes: also called parental 93H2; 93H2 mAb
In the case of B1, the IC50 in assay [1] is 4.22 nM. The “HTRF Ratio” value in assay [2] is 13800.

B2: CTIR2-14 (antibody, human IgG1, kappa, V domains shown)
VH: EVQLVQSGAEVKKPGASVKVSCKASGYTFRGYAMHWVRQAPGQGLEWMGWIDPRTGLTKFPQKFQGRVTMTRDTSITTAYMDLSRLRSDDTAVYYCARESGDDAFDIWGQGTMVTVSS
VL: DIVMTQSPSSLSASVGDRVTITCRASQKISSYLNWYQQKPGKAPKLLIYAASSLQYGVPSRFSGSGSGTDFTLTISSLQPEDFATYYCQQSLELGFGGGTKVEIKR
notes: CDR-shuffled IgG
B2: in assay [1], the IC50 is 0.037 nM. Also, in assay [2], the “HTRF Ratio” value was 3710.

B3: Abcs55 (antibody, human IgG1, kappa, V domains shown)
VH: EVQLVQSGAEVKKPGASVKVSCKASGYTFTGYYMHWVRQAPGQGLEWMGWINPKDGDTEFPQKFQGRVTMTRDTSITTAYMDLSRLRSDDTAVYYCARESGDDAFDIWGQGTMVTVSS
VL: DIVMTQSPSSLSASVGDRVTITCRASQSISSYLNWYQQKPGKAPKLLIYAASSLQYGVPSRFSGSGSGTDFTLTISSLQPEDFATYYCQQSYSTSFGGGTKVEIKR
notes: chain-shuffled IgG
Take B3: the IC50 in assay [1] is 0.057 nM. Also, the “HTRF Ratio” value in assay [2] is 3050.

B4: CTIR2-16 (antibody, human IgG1, kappa, V domains shown)
VH: EVQLVQSGAEVKKPGASVKVSCKASGYTFRGYAMHWVRQAPGQGLEWMGWIDPRTGLTKFPQKFQGRVTMTRDTSITTAYMDLSRLRSDDTAVYYCARESGDDAFDIWGQGTMVTVSS
VL: DIVMTQSPSSLSASVGDRVTITCRASQKISSYLNWYQQKPGKAPKLLIYAASSLQYGVPSRFSGSGSGTDFTLTISSLQPEDFATYYCQQSVGLFFGGGTKVEIKR
notes: CDR-shuffled IgG
In turn, B4 showed an IC50 in assay [1] of 0.056 nM. In addition, the “HTRF Ratio” value in assay [2] stood at 3730.

B5: Abcs40 (antibody, human IgG1, kappa, V domains shown)
VH: EVQLVQSGAEVKKPGASVKVSCKASGYTFTGYYMHWVRQAPGQGLEWMGWINPKDGDTEFPQKFQGRVTMTRDTSITTAYMDLSRLRSDDTAVYYCARESGDDAFDIWGQGTMVTVSS
VL: DIVMTQSPSSLSASVGDRVTITCRASQSISSYLNWYQQKPGKAPKLLIYAASSLQSGVPSRFSGSGSGTDFTLTISSLQPEDFATYYCQQSVGLFFGGGTKVEIKR
notes: chain-shuffled IgG
The molecule B5 came in with an IC50 in assay [1] of 0.048 nM. Further, the “HTRF Ratio” value in assay [2] stood at 3390.

B6: Abcs35 (antibody, human IgG1, kappa)
heavy: EVQLVQSGAEVKKPGASVKVSCKASGYTFTGYYMHWVRQAPGQGLEWMGWINPKNGDTEFPQKFQGRVTMTRDTSITTAYMDLSRLRSDDTAVYYCARESGDDAFDIWGQGTMVTVSSASTKGPSVFPLAPSSKSTSGGTAALGCLVKDYFPEPVTVSWNSGALTSGVHTFPAVLQSSGLYSLSSVVTVPSSSLGTQTYICNVNHKPSNTKVDKKVEPKSCDKTHTCPPCPAPEAAGAPSVFLFPPKPKDTLMISRTPEVTCVVVDVSHEDPEVKFNWYVDGVEVHNAKTKPREEQYNSTYRVVSVLTVLHQDWLNGKEYKCKVSNKALPAPIEKTISKAKGQPREPQVYTLPPSREEMTKNQVSLTCLVKGFYPSDIAVEWESNGQPENNYKTTPPVLDSDGSFFLYSKLTVDKSRWQQGNVFSCSVMHEALHNHYTQKSLSLSPGK
light: DIVMTQSPSSLSASVGDRVTITCRASQSISSYLNWYQQKPGKAPKLLIYAASSLQSGVPSRFSGSGSGTDFTLTISSLQPEDFATYYCQQSVGLFFGGGTKVEIKRTVAAPSVFIFPPSDEQLKSGTASVVCLLNNFYPREAKVQWKVDNALQSGNSQESVTEQDSKDSTYSLSSTLTLSKADYEKHKVYACEVTHQGLSSPVTKSFNRGEC
notes: fully human IgG1; VH of Ab96 with VL of Ab123
Regarding B6, the IC50 in assay [1] turned out to be 0.041 nM. Besides, the “HTRF Ratio” value in assay [2] was 3940.

B7: CTIR2-15 (antibody, human IgG1, kappa, V domains shown)
VH: EVQLVQSGAEVKKPGASVKVSCKASGYTFRGYAMHWVRQAPGQGLEWMGWIDPRTGLTKFPQKFQGRVTMTRDTSITTAYMDLSRLRSDDTAVYYCARESGDDAFDIWGQGTMVTVSS
VL: DIVMTQSPSSLSASVGDRVTITCRASQKISSYLNWYQQKPGKAPKLLIYAASSLQYGVPSRFSGSGSGTDFTLTISSLQPEDFATYYCQQSVGLSFGGGTKVEIKR
notes: CDR-shuffled IgG
For B7, in assay [1], the IC50 was 0.05 nM. In addition, the “HTRF Ratio” value in assay [2] was determined as 3750.

B8: Abcs20 (antibody, human IgG1, kappa, V domains shown)
VH: EVQLVQSGAEVKKPGASVKVSCKASGYTFTGYYMHWVRQAPGQGLEWMGWINPKNGDTEFPQKFQGRVTMTRDTSITTAYMDLSRLRSDDTAVYYCARESGDDAFDIWGQGTMVTVSS
VL: DIVMTQSPSSLSASVGDRVTITCRASQSISSYLNWYQQKPGKAPKLLIYAASSLQSGVPSRFSGSGSGTDFTLTISSLQPEDFATYYCQQSVGLSFGGGTKVEIKR
notes: chain-shuffled IgG
For the molecule B8, the IC50 in assay [1] turned out to be 0.04 nM. Besides, the “HTRF Ratio” value in assay [2] was found to be 3970.

B9: Abcs25 (antibody, human IgG1, kappa, V domains shown)
VH: EVQLVQSGAEVKKPGASVKVSCKASGYTFTGYYMHWVRQAPGQGLEWMGWINPKDGDTEFPQKFQGRVTMTRDTSITTAYMDLSRLRSDDTAVYYCARESGDDAFDIWGQGTMVTVSS
VL: DIVMTQSPSSLSASVGDRVTITCRASQSISSYLNWYQQKPGKAPKLLIYAASSLQSGVPSRFSGSGSGTDFTLTISSLQPEDFATYYCQQSVGLSFGGGTKVEIKR
notes: chain-shuffled IgG
As for B9, in assay [1], the IC50 was 0.042 nM. Moreover, the “HTRF Ratio” value in assay [2] worked out at 3880.

The record behind these values is US20200157212A1 (Pfizer, published 2020).
